Laboratory results as given in patent publication US20170189519A1.

B1: Fab fragment of CR6261 (Fab, V domains shown)
VH: EVQLVESGAEVKKPGSSVKVSCKASGGPFRSYAISWVRQAPGQGPEWMGGIIPIFGTTKYAPKFQGRVTITADDFAGTVYMELSSLRSEDTAMYYCAKHMGYQVRETMDVWGKGTTVTVSS
VL: QSVLTQPPSVSAAPGQKVTISCSGSSSNIGNDYVSWYQQLPGTAPKLLIYDNNKRPSGIPDRFSGSKSGTSATLGITGLQTGDEANYYCATWDRRPTAYVVFGGGTKLTVLG
B2: CR6261 (antibody, V domains shown)
VH: EVQLVESGAEVKKPGSSVKVSCKASGGPFRSYAISWVRQAPGQGPEWMGGIIPIFGTTKYAPKFQGRVTITADDFAGTVYMELSSLRSEDTAMYYCAKHMGYQVRETMDVWGKGTTVTVSS
VL: QSVLTQPPSVSAAPGQKVTISCSGSSSNIGNDYVSWYQQLPGTAPKLLIYDNNKRPSGIPDRFSGSKSGTSATLGITGLQTGDEANYYCATWDRRPTAYVVFGGGTKLTVLG

Experiments:
Conditions in all cases: remark: other sources report otherwise
s127H1-t2-cl18long [1] = experiment: SEC-MALS of trimer with Fab fragments; value in brackets is the theoretical one
[2] = molecular target: UFV150124 (influenza A virus H1 A/Brisbane/59/2007)
[3] = molecular target: UFV150125 (influenza A virus H1 A/Brisbane/59/2007)
[4] = molecular target: UFV150134 (influenza A virus H1 A/California/07/2009)
[5] = molecular target: UFV150135 (influenza A virus H1 A/California/07/2009)
s127H1-t2-cl18long [6] = experiment: Kd app from steady state Octet (biolayer interferometry), antibody immobilized

Row | Binder | Mw of trimer protein complex with CRF6261 (s127H1-t2-cl18long [1]) | CR6261 binding AlphaLISA (counts) [2] | CR6261 binding AlphaLISA (counts) [3] | CR6261 binding AlphaLISA (counts) [4] | CR6261 binding AlphaLISA (counts) [5] | Kd (s127H1-t2-cl18long [6])
1 | B1 | 216 kDa |  |  |  |  | 
2 | B2 |  | 572000 counts | 475000 counts | 587000 counts | 625000 counts | 0.5 nM
